Measurements published in US20210388087A1 (Chugai, published 2021).
Numbering of substitutions follows the chain as printed. Values belong to the binder of their own block, whether it stands above or below them.

Biological target: T1, Human CD137 ECD (human)
T1 construct: entry includes C-terminal His-tag and biotin acceptor peptide; also called human CD137 extracellular domain; 4-1BB
Experiment: Biacore SPR, vs parent H183/L072

T1 sequence (chain, as listed by the source limits assumed): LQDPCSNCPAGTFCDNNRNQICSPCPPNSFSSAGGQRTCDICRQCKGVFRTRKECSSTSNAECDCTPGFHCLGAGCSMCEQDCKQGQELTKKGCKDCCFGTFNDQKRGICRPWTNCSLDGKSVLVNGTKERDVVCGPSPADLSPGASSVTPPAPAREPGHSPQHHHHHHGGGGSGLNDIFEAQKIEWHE

B1: H183/L072 VL Q24V (antibody, name in Kabat numbering, V domains shown)
VH: QVQLVESGGGLVQPGRSLRLSCAASGFTFSNAWMHWVRQAPGKGLEWVAQIKDKGNAYAAYYAPSVKGRFTISRDDSKNSIYLQMNSLKTEDTAVYYCHYVHYASASTVLPAFGVDAWGQGTTVTVSS
VL: DIVMTQSPLSLPVTPGEPASISCVASQELVHMNRNTYLHWYQQKPGQAPRLLIYKVSNRFPGVPDRFSGSGSGTDFTLKISRVEAEDVGVYYCAQGTSVPFTFGQGTKLEIK
notes: Dual-Ig
fold change of affinity: 0.9 fold

B2: H183/L072 VL Q27V (antibody, name in Kabat numbering, V domains shown)
VH: B1 VH
VL: B1 VL with V24Q, Q27V
notes: Dual-Ig
fold change of affinity: 0.8 fold

B3: H183/L072 VL Q27W (antibody, name in Kabat numbering, V domains shown)
VH: B1 VH
VL: B1 VL with V24Q, Q27W
notes: Dual-Ig
fold change of affinity: 0.5 fold

B5: H183/L072 VL Q27S (antibody, name in Kabat numbering, V domains shown)
VH: B1 VH
VL: B1 VL with V24Q, Q27S
notes: Dual-Ig
fold change of affinity: 0.8 fold

B6: H183/L072 VL Q27Y (antibody, name in Kabat numbering, V domains shown)
VH: B1 VH
VL: B1 VL with V24Q, Q27Y
notes: Dual-Ig
fold change of affinity: 0.7 fold

B8: H183/L072 VL Q24W (antibody, name in Kabat numbering, V domains shown)
VH: B1 VH
VL: B1 VL with V24W
notes: Dual-Ig
fold change of affinity: 1 fold

B10: H183/L072 VL Q24Y (antibody, name in Kabat numbering, V domains shown)
VH: B1 VH
VL: B1 VL with V24Y
notes: Dual-Ig
fold change of affinity: 0.9 fold

B11: H183/L072 VL Q27I (antibody, name in Kabat numbering, V domains shown)
VH: B1 VH
VL: B1 VL with V24Q, Q27I
notes: Dual-Ig
fold change of affinity: 0.7 fold

B15: H183/L072 VL Q27G (antibody, name in Kabat numbering, V domains shown)
VH: B1 VH
VL: B1 VL with V24Q, Q27G
notes: Dual-Ig
fold change of affinity: 0.9 fold

B19: H183/L072 VL Q27H (antibody, name in Kabat numbering, V domains shown)
VH: B1 VH
VL: B1 VL with V24Q, Q27H
notes: Dual-Ig
fold change of affinity: 0.9 fold

B20: H183/L072 VL Q27N (antibody, name in Kabat numbering, V domains shown)
VH: B1 VH
VL: B1 VL with V24Q, Q27N
notes: Dual-Ig
fold change of affinity: 0.8 fold

B22: H183/L072 VL Q27L (antibody, name in Kabat numbering, V domains shown)
VH: B1 VH
VL: B1 VL with V24Q, Q27L
notes: Dual-Ig
fold change of affinity: 0.8 fold

B25: H183/L072 VL Q27E (antibody, name in Kabat numbering, V domains shown)
VH: B1 VH
VL: B1 VL with V24Q, Q27E
notes: Dual-Ig
fold change of affinity: 1 fold

B26: H183/L072 VL Q27M (antibody, name in Kabat numbering, V domains shown)
VH: B1 VH
VL: B1 VL with V24Q, Q27M
notes: Dual-Ig
fold change of affinity: 0.9 fold

B27: H183/L072 VL Q90D (antibody, name in Kabat numbering, V domains shown)
VH: B1 VH
VL: B1 VL with V24Q, Q95D
notes: Dual-Ig
fold change of affinity: 0 fold

B28: H183/L072 VL Q27K (antibody, name in Kabat numbering, V domains shown)
VH: B1 VH
VL: B1 VL with V24Q, Q27K
notes: Dual-Ig
fold change of affinity: 0.9 fold

B29: H183/L072 VL Q27P (antibody, name in Kabat numbering, V domains shown)
VH: B1 VH
VL: B1 VL with V24Q, Q27P
notes: Dual-Ig
fold change of affinity: 0.1 fold

B31: H183/L072 VL Q27A (antibody, name in Kabat numbering, V domains shown)
VH: B1 VH
VL: B1 VL with V24Q, Q27A
notes: Dual-Ig
fold change of affinity: 1 fold

B33: H183/L072 VL Q27F (antibody, name in Kabat numbering, V domains shown)
VH: B1 VH
VL: B1 VL with V24Q, Q27F
notes: Dual-Ig
fold change of affinity: 0.6 fold

B34: H183/L072 VL Q27T (antibody, name in Kabat numbering, V domains shown)
VH: B1 VH
VL: B1 VL with V24Q, Q27T
notes: Dual-Ig
fold change of affinity: 0.9 fold

B37: H183/L072 VL Q90A (antibody, name in Kabat numbering, V domains shown)
VH: B1 VH
VL: B1 VL with V24Q, Q95A
notes: Dual-Ig
fold change of affinity: 0 fold

B39: H183/L072 VL Q27R (antibody, name in Kabat numbering, V domains shown)
VH: B1 VH
VL: B1 VL with V24Q, Q27R
notes: Dual-Ig
fold change of affinity: 0.9 fold

B43: H183/L072 VL Q27D (antibody, name in Kabat numbering, V domains shown)
VH: B1 VH
VL: B1 VL with V24Q, Q27D
notes: Dual-Ig
fold change of affinity: 0.9 fold

Results, then the binder that gave them:

fold change of affinity: 0 fold
B4: H183/L072 VL Q90K (antibody, name in Kabat numbering, V domains shown)
VH: B1 VH
VL: B1 VL with V24Q, Q95K
notes: Dual-Ig

fold change of affinity: 0 fold
B7: H183/L072 VL Q90P (antibody, name in Kabat numbering, V domains shown)
VH: B1 VH
VL: B1 VL with V24Q, Q95P
notes: Dual-Ig

fold change of affinity: 0.3 fold
B9: H183/L072 VL R29D (antibody, name in Kabat numbering, V domains shown)
VH: B1 VH
VL: B1 VL with V24Q, R34D
notes: Dual-Ig

fold change of affinity: 0 fold
B12: H183/L072 VL Q90I (antibody, name in Kabat numbering, V domains shown)
VH: B1 VH
VL: B1 VL with V24Q, Q95I
notes: Dual-Ig

fold change of affinity: 0 fold
B13: H183/L072 VL Q90T (antibody, name in Kabat numbering, V domains shown)
VH: B1 VH
VL: B1 VL with V24Q, Q95T
notes: Dual-Ig

fold change of affinity: 0.7 fold
B14: H183/L072 VL R29F (antibody, name in Kabat numbering, V domains shown)
VH: B1 VH
VL: B1 VL with V24Q, R34F
notes: Dual-Ig

fold change of affinity: 0 fold
B16: H183/L072 VL Q90G (antibody, name in Kabat numbering, V domains shown)
VH: B1 VH
VL: B1 VL with V24Q, Q95G
notes: Dual-Ig

fold change of affinity: 0 fold
B17: H183/L072 VL Q90S (antibody, name in Kabat numbering, V domains shown)
VH: B1 VH
VL: B1 VL with V24Q, Q95S
notes: Dual-Ig

fold change of affinity: 0.8 fold
B18: H183/L072 VL R29H (antibody, name in Kabat numbering, V domains shown)
VH: B1 VH
VL: B1 VL with V24Q, R34H
notes: Dual-Ig

fold change of affinity: 0.8 fold
B21: H183/L072 VL R29A (antibody, name in Kabat numbering, V domains shown)
VH: B1 VH
VL: B1 VL with V24Q, R34A
notes: Dual-Ig

fold change of affinity: 0 fold
B23: H183/L072 VL Q90L (antibody, name in Kabat numbering, V domains shown)
VH: B1 VH
VL: B1 VL with V24Q, Q95L
notes: Dual-Ig

fold change of affinity: 0 fold
B24: H183/L072 VL Q90V (antibody, name in Kabat numbering, V domains shown)
VH: B1 VH
VL: B1 VL with V24Q, Q95V
notes: Dual-Ig

fold change of affinity: 0 fold
B30: H183/L072 VL Q90E (antibody, name in Kabat numbering, V domains shown)
VH: B1 VH
VL: B1 VL with V24Q, Q95E
notes: Dual-Ig

fold change of affinity: 0 fold
B32: H183/L072 VL Q90N (antibody, name in Kabat numbering, V domains shown)
VH: B1 VH
VL: B1 VL with V24Q, Q95N
notes: Dual-Ig

fold change of affinity: 0 fold
B35: H183/L072 VL Q90W (antibody, name in Kabat numbering, V domains shown)
VH: B1 VH
VL: B1 VL with V24Q, Q95W
notes: Dual-Ig

fold change of affinity: 0.3 fold
B36: H183/L072 VL R29I (antibody, name in Kabat numbering, V domains shown)
VH: B1 VH
VL: B1 VL with V24Q, R34I
notes: Dual-Ig

fold change of affinity: 0.2 fold
B38: H183/L072 VL Q90H (antibody, name in Kabat numbering, V domains shown)
VH: B1 VH
VL: B1 VL with V24Q, Q95H
notes: Dual-Ig

fold change of affinity: 0 fold
B40: H183/L072 VL Q90R (antibody, name in Kabat numbering, V domains shown)
VH: B1 VH
VL: B1 VL with V24Q, Q95R
notes: Dual-Ig

fold change of affinity: 0.4 fold
B41: H183/L072 VL R29E (antibody, name in Kabat numbering, V domains shown)
VH: B1 VH
VL: B1 VL with V24Q, R34E
notes: Dual-Ig

fold change of affinity: 1.1 fold
B42: H183/L072 VL R29K (antibody, name in Kabat numbering, V domains shown)
VH: B1 VH
VL: B1 VL with V24Q, R34K
notes: Dual-Ig

fold change of affinity: 1.1 fold
B44: H183/L072 VL R29G (antibody, name in Kabat numbering, V domains shown)
VH: B1 VH
VL: B1 VL with V24Q, R34G
notes: Dual-Ig

fold change of affinity: 0 fold
B45: H183/L072 VL Q90F (antibody, name in Kabat numbering, V domains shown)
VH: B1 VH
VL: B1 VL with V24Q, Q95F
notes: Dual-Ig

fold change of affinity: 0 fold
B46: H183/L072 VL Q90M (antibody, name in Kabat numbering, V domains shown)
VH: B1 VH
VL: B1 VL with V24Q, Q95M
notes: Dual-Ig
